How the values were obtained:
[1] = biological target: T1, LGR5 (UniProt O75473 22-907, limits assumed); assay: cell-based or functional assay
T1 sequence (looked up): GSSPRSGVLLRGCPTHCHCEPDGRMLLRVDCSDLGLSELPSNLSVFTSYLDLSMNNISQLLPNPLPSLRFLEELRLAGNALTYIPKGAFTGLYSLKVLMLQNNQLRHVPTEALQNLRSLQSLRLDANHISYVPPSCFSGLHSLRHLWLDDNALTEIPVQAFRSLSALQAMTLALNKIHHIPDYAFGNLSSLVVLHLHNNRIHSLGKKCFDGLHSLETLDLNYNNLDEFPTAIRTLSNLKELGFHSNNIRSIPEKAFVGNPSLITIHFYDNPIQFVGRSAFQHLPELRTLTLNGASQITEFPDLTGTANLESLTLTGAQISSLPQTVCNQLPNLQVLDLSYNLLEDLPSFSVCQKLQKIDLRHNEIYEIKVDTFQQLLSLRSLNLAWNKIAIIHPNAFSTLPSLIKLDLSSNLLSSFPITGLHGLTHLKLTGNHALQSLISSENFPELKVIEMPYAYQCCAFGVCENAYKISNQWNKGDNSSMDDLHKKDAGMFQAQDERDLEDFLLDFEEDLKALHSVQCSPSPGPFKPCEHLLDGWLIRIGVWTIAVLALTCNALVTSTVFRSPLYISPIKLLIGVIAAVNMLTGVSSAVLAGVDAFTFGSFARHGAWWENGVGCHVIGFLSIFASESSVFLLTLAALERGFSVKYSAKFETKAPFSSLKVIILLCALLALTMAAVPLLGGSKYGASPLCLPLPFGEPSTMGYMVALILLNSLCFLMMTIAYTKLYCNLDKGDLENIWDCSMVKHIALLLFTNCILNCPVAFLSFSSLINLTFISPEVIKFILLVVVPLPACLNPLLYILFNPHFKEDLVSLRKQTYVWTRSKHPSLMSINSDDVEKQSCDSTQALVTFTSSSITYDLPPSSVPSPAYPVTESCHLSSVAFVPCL

[2] = biological target: T1, LGR5; assay: cell-based or functional assay; remark: listed apart in the source

B1: FcST4-MMAE (Fc fusion)
chain: EPKSCDKTHTCPPCPAPELLGGPSVFLFPPKPKDTLMISRTPEVTCVVVDVSHEDPEVKFNWYVDGVEVHNAKTKPREEQYNSTYRVVSVLTVDHHDWLNGKEYKCKVSNKALPAPIEKTISKAKGQPREPQVYTLPPSRDELTKNQVSLTCLVKGFYPSDIAVEWESNGQPENNYKTTPPVLDSDGSFFLYSKLTVDKSRWQQGNVFSCSVMHEALHSHYTQKSLSLSPGKGGGGSGGGGSSRGIKGKRQRRISAEGSQACAKGCELCSEVNGCLKCSPKLFILLERNDIRQVGVCLPSCPPGYFDARNPDMNKCIKCKIEHCEACFSHNFCTKCKEGLYLHKGRCYPACPEGSSAANGTMECSSPGGGGSGGGGSSRGIKGKRQRRISAEGSQACAKGCELCSEVNGCLKCSPKLFILLERNDIRQVGVCLPSCPPGYFDARNPDMNKCIKCKIEHCEACFSHNFCTKCKEGLYLHKGRCYPACPEGSSAANGTMECSSPGGGGSGGGGSLPETGGG
modifications: C-terminal GGG carries val-cit-PAB-MMAE (sortase reaction with G3-val-cit-PAB-MMAE; GG-8xHis removed)
IC50 of cytotoxicity (OVCAR8 empty vector and LGR5-overexpressing cells; the cell line of each end is not stated) [1]: 1.9 to 3.8 nM

B2: FcF2-PNU159682 (Fc fusion)
chain: EPKSCDKTHTCPPCPAPELLGGPSVFLFPPKPKDTLMISRTPEVTCVVVDVSHEDPEVKFNWYVDGVEVHNAKTKPREEQYNSTYRVVSVLTVDHHDWLNGKEYKCKVSNKALPAPIEKTISKAKGQPREPQVYTLPPSRDELTKNQVSLTCLVKGFYPSDIAVEWESNGQPENNYKTTPPVLDSDGSFFLYSKLTVDKSRWQQGNVFSCSVMHEALHSHYTQKSLSLSPGKGGGGSGGGGSSRGIKGKRQRRISAEGSQACAKGCELCSEVNGCLKCSPKLFILLERNDIRQVGVCLPSCPPGYFDARNPDMNKCIKCKIEHCEACFSHNFCTKCKEGLYLHKGRCYPACPEGSSAANGTMECSSPGGGGSGGGGSLPET
modifications: PNU159682 (anthracycline derivative) joined to the C-terminus by sortase A; the linker is not described
IC50 of growth inhibition, OVCAR8/EV cells (LGR5-poor control) [1]: > 3 nM | IC50 of growth inhibition, OVCAR8/LGR5 cells [1]: 0.3 nM | IC50 ratio, OVCAR8/EV to OVCAR8/LGR5 [1]: ~10 ratio

B3: FcF2-deruxtecan (Fc fusion)
chain: EPKSCDKTHTCPPCPAPELLGGPSVFLFPPKPKDTLMISRTPEVTCVVVDVSHEDPEVKFNWYVDGVEVHNAKTKPREEQYNSTYRVVSVLTVDHHDWLNGKEYKCKVSNKALPAPIEKTISKAKGQPREPQVYTLPPSRDELTKNQVSLTCLVKGFYPSDIAVEWESNGQPENNYKTTPPVLDSDGSFFLYSKLTVDKSRWQQGNVFSCSVMHEALHSHYTQKSLSLSPGKGGGGSGGGGSSRGIKGKRQRRISAEGSQACAKGCELCSEVNGCLKCSPKLFILLERNDIRQVGVCLPSCPPGYFDARNPDMNKCIKCKIEHCEACFSHNFCTKCKEGLYLHKGRCYPACPEGSSAANGTMECSSPGGGGSGGGGSLPETGGGC
modifications: C-terminal Cys of GGGC carries maleimide-GGFG-deruxtecan
IC50 of growth inhibition, OVCAR8/EV cells (LGR5-poor control; CCK8, 120 h) [1]: 9.04 nM | IC50 of growth inhibition, OVCAR8/LGR5 cells (CCK8, 120 h) [1]: 0.753 nM | selectivity, OVCAR8/LGR5 against OVCAR8/EV [1]: 12 fold

B4: FcF2Δlinker-MMAE (Fc fusion)
chain: EPKSCDKTHTCPPCPAPELLGGPSVFLFPPKPKDTLMISRTPEVTCVVVDVSHEDPEVKFNWYVDGVEVHNAKTKPREEQYNSTYRVVSVLTVDHHDWLNGKEYKCKVSNKALPAPIEKTISKAKGQPREPQVYTLPPSRDELTKNQVSLTCLVKGFYPSDIAVEWESNGQPENNYKTTPPVLDSDGSFFLYSKLTVDKSRWQQGNVFSCSVMHEALHSHYTQKSLSLSPGKSRGIKGKRQRRISAEGSQACAKGCELCSEVNGCLKCSPKLFILLERNDIRQVGVCLPSCPPGYFDARNPDMNKCIKCKIEHCEACFSHNFCTKCKEGLYLHKGRCYPACPEGSSAANGTMECSSPLPETGGG
modifications: C-terminal GGG carries valine-citrulline-PAB-MMAE
IC50 (read off the curve), growth inhibition of OVCAR8/LGR5 cells [panel ExpiCHO FcF2-MMAE linker deletion batch #1] [2]: ~4 nM
